2 molecules from patent publication US6423500 (SCHERING, dated 2002) can be followed below.

In assay [1] the target is T1, mouse IL-10 receptor (mouse, UniProt Q61727 17-575).
T1 construct: Expressed on transfected COS7 cells; the native receptor on mouse cell lines (MC/9, J774, WEHI 265.1) is written as this same molecule; also called mIL-10R; mouse IL-10 receptor component
T1 sequence: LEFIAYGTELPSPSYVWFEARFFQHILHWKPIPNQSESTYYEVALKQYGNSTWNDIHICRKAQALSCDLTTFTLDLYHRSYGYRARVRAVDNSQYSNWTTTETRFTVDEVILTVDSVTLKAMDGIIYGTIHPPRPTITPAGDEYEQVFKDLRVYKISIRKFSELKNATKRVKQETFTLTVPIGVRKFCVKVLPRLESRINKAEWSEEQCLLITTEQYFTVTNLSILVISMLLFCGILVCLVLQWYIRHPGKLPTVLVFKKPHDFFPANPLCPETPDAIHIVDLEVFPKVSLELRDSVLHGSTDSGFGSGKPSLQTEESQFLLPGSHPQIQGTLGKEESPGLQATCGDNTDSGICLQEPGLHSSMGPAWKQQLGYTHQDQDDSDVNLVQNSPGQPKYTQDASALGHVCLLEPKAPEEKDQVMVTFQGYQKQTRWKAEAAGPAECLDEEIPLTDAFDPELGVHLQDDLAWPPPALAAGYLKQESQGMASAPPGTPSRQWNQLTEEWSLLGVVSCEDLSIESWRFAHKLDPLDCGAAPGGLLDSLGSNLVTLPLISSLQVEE
As to the kind of experiment: FACS competition against FLAG-mIL-10 on MC/9 and J774 cells.

For assay [2], the target named is T2, human IL-10 receptor (human, UniProt Q13651 22-578).
T2 construct: Expressed on transfected COS7 cells and Ba/F3 (Ba8.1) cells; The native IL-10 receptor on human cell lines (JY, TF-1, BJAB, Ramos, BH5) is written as this same molecule; also called hIL-10R; human IL-10 receptor component
T2 sequence: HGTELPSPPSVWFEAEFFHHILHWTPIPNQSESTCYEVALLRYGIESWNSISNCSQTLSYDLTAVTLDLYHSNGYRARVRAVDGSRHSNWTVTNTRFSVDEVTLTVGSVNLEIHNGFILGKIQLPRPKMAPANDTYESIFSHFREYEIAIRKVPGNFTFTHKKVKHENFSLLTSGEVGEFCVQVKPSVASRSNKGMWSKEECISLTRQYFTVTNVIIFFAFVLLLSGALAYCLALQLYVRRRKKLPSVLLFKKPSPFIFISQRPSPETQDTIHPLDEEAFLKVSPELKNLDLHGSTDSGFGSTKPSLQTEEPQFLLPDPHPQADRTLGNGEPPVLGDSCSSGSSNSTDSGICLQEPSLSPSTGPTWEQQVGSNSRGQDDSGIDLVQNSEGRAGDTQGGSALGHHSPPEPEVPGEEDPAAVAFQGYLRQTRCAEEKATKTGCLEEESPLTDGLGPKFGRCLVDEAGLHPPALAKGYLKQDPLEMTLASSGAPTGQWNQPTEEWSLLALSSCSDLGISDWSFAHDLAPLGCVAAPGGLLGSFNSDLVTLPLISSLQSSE
As to the kind of experiment: saturation binding of iodinated hIL-10 to JY cells, Scatchard analysis.
Method: (§1) Scatchard analysis was performed on the data points obtained using the EBDA Program (Elsevier-Biosoft, Cambridge, U.K.). Antibody inhibition was performed under the above binding conditions but with the addition of a 100-fold molar excess of each of the indicated monoclonal antibodies. Cytokine specificity was determined under similar conditions but with the addition of 500-fold molar excess of the cytokines indicated.

In assay [3] the target is T2, human IL-10 receptor. Description: Scatchard analysis of 125I-hIL-10 binding to Ba8.1 cells, repeat experiments.
From the text: (§2) Values for Kd and receptor number were obtained by Scatchard analysis (23, 33, 34).
Assay [4] has as its target T2, human IL-10 receptor. As to the kind of experiment: saturation binding of iodinated hIL-10 to JY cells, Scatchard analysis (EBDA).
Method: as §1
Assay [5] addresses T1, mouse IL-10 receptor. As to the kind of experiment: saturation binding of iodinated hIL-10 to MC/9 cells, Scatchard analysis (EBDA).
Method: as §1
Assay [6] concerns the target IL-10 receptors on JY and MC/9 cells. Description: saturation binding of iodinated hIL-10 to JY and MC/9 cells, several independent experiments.
Assay [7] concerns the target T2, human IL-10 receptor. As to the kind of experiment: Scatchard analysis of 125I-hIL-10 binding to Ba8.1 cells (Ba/F3 expressing hIL-10R), experiment shown.
From the text: as §2
The target in assay [8] is T2, human IL-10 receptor. As to the kind of experiment: saturation binding of iodinated hIL-10 to COS7 cells transfected with human clone SW8.1, Scatchard plot.
Method: (§3) Binding assays were performed. […] For FIGS. 16 and 17, the highest concentration was 1 nM. Background was determined by performing binding at 500-fold molar excess. Points represent averages of duplicates.
Assay [9] deals with T1, mouse IL-10 receptor. Description: saturation binding of iodinated hIL-10 to COS7 cells transfected with mouse clone m3.14, Scatchard plot.
Method: as §3

B1: mouse IL-10 (ligand, UniProt P18893 19-178, looked up)
chain: SRGQYSREDNNCTHFPVGQSHMLLELRTAFSQVKTFFQTKDQLDNILLTDSLMQDFKGYLGCQALSEMIQFYLVEVMPQAEKHGPEIKEHLNSLGEKLKTLRMRLRRCHRFLPCENKSKAVEQVKSDFNKLQDQGVYKAMNEFDIFINCIEAYMMIKMKS
notes: mature; also called mIL-10; murine IL-10
Take B1: the binding result with mouse IL-10 receptor [1] is reported as “binds”.

B2: human IL-10 (ligand, UniProt P22301 19-178, looked up)
chain: SPGQGTQSENSCTHFPGNLPNMLRDLRDAFSRVKTFFQMKDQLDNLLLKESLLEDFKGYLGCQALSEMIQFYLEEVMPQAENQDPDIKAHVNSLGENLKTLRLRLRRCHRFLPCENKSKAVEQVKNAFNKLQEKGIYKAMSEFDIFINYIEAYMTMKIRN
modifications: radioiodinated (125I, lactoperoxidase method) where used as labeled ligand; positions not given
notes: mature; Labeled and unlabeled hIL-10 are treated as one molecule; also called hIL-10; human interleukin-10
For the molecule B2, the Kd in the assay with human IL-10 receptor [2] is around 0.15 nM; with human IL-10 receptor [3] it was 0.2 to 0.25 nM; with human IL-10 receptor [4] it was 0.14 nM; with mouse IL-10 receptor [5], 0.049 nM; in [6] it was 0.05 to 0.17 nM; with human IL-10 receptor [7], around 0.25 nM. The dissociation constant (Kd) was 0.12 nM in the assay with human IL-10 receptor [8] and 0.083 nM in the assay with mouse IL-10 receptor [9].

Usually Kd stands for the free concentration of one partner at which half of the binding sites on the other are occupied at equilibrium, for simple one-to-one binding. A high value points to a looser complex.
